Results from patent US9902783B2, “Antibodies and pharmaceutical compositions containing same useful for inhibiting activity of metalloproteins” (Yeda Research and Development Co. Ltd., priority 2007, dated 2018).

T1: full length native MMP-2 secreted by HT1080 cells (Homo sapiens, UniProt P08253)
T1 construct: full length native MMP-2 secreted by human fibrosarcoma (HT1080) cell cultures; endogenous in cells; host or cells: HT1080 human fibrosarcoma cells, conditioned medium
T1 sequence (P08253 30-660): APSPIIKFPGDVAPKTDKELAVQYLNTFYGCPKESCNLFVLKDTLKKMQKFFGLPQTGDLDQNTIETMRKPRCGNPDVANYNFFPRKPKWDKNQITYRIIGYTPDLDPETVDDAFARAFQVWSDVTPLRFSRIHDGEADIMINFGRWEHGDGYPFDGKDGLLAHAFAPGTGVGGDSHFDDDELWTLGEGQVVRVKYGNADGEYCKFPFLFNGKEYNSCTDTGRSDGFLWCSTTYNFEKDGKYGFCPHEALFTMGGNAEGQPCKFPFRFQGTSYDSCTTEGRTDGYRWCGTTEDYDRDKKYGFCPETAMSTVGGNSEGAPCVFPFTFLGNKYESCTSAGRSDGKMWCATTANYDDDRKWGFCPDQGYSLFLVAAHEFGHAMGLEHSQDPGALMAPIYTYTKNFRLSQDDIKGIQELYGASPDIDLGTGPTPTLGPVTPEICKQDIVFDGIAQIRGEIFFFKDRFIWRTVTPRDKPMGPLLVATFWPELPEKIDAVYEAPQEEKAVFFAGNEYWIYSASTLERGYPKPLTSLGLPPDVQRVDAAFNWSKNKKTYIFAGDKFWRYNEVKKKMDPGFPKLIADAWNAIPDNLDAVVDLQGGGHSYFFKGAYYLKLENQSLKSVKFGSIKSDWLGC

T2: Pro-MMP-2 (Homo sapiens, UniProt P08253)
T2 sequence (P08253 30-660 limits assumed): T1 sequence (P08253 30-660)

B1: 13E11: monoclonal antibody, IgG2b, raised against the hapten CoTCPP (antibody, V domains shown)
VH: EGGGLVQPGGSRKLSCAASGFTFTSFGMHWVRQAPEKGLEWVAYISSGNEIIYYADTVKGRFTISRDNPKNTLFLQMTSLRSEDTAMYYCARNYYRYGFYVMDYWGQG
VL: EIVVTQSPAILSASPGEKVTMTCRASSSVSYMHWYQQKPGSSPKPWIYATSNELASGVPARFSGSGSGTSYSLTISRVEAEDAATYYCQQWISNPLTFGAG
modifications: 13E11 mAb heavy chain; 13E11 mAb light chain
notes: monoclonal antibody, IgG2b, raised against the hapten CoTCPP
B2: 6C6: monoclonal antibody, IgG2a, raised against the hapten Imisdp; MMP-2 and MMP-9 inhibitory; SEQ ID NO: 1 (protein)
chain: CMETTQTPLSLPVSLGDQASISCRSSQSIVHSNGNTFLEWYLQKPGQSPKLLIYKVSNCRFSGVPDRFSGSGSGTDFTLKISRVEAEDLGVYYCFQASHVPPTFGGG
modifications: 6c6 mAb light chain

What was measured:
TACE = TACE (Homo sapiens, UniProt P78536); assay: immuno affinity binding assay, TACE; settings: purified enzyme
Procedure: MAbs (10 μg) were incubated with anti mouse IgG Agarose beads (Sigma) overnight at 4° C. in PBS. After washing unbound antibody, purified Pro-MMP-2, Pro-MMP-9 MMP-2 catalytic domain, MT1 catalytic domain or TACE (2 μg), were added following 2 h incubation at RT. The beads were collected by centrifugation and washed three times with PBS. The proteins that remained bound to the beads were eluted with SDS sample buffer, fractionated by SDS-PAGE, and detected by staining with Coomassie blue.

[1] = biological target: T1, full length native MMP-2 secreted by HT1080 cells; assay: immunoprecipitation of HT1080 conditioned medium and western blot; assay type: binding; settings: HT1080 conditioned medium, not activated
Procedure: HT1080 cells were seeded in petri dishes. After reaching 80% confluence, the medium (DMEM supplemented with 10% FCS, nonessential amino acids, penicillin, streptomycin, sodium pyruvate, and L-glutamine) was changed to serum free medium (without FCS). Following another 24 h of incubation, conditioned medium (CM) was harvested from the adherent cells and concentrated using Millipore Centricon-10 (Bedford, Mass.). Concentrated supernatants were used for immunoprecipitations. CM was incubated with anti-1 (CoTCPP) mAb (15 μg/ml) overnight at 4° C. […] Beads were washed 3 times with PBS, suspended in SDS sample buffer, and heated to 95° C. for 3 min Immunoprecipitates were recovered by centrifugation and subjected to SDS/PAGE. After separation, proteins were transferred to nitrocellulose (NC) membranes and probed with anti-MMP-2 antibody.
To activate ProMMP-2 produced by HT1080 cells, 1 mM of 4-aminophenyl mercuric acetate (APMA) was added to the concentrated CM followed by 6 h incubation in 37° C. After activation, the CM was dialyzed (×3) against PBS at 4° C., to remove APMA Immunoprecipitation with the activated medium was performed as described above.

Pro-MMP-2 = biological target: T2, Pro-MMP-2; assay type: binding
DSS-induced colitis = assay: DSS induced acute colitis in mice; assay type: in vivo, C57BL/6 mice; settings: for reduction in colon length: 11 days after DSS induction, versus naïve mice
Procedure: FIGS. 15A-15C are graphs illustrating the effect of 6C6 treatment on the various manifestations of acute DSS colitis in C57BL/6 mice. Disease was induced by 2% DSS for 5 days. 6C6 treatment, 5 or 1.5 mg/kg mouse, was administered by daily i.p. injection starting from day 0. FIG. 15A: Clinical score was evaluated by daily monitoring of DAI (which is the combined score of body weight, rectal bleeding and stool consistency, on a scale of 0-4). Data are expressed as the dot distribution of a mean for each animal of days 6 to 10. FIG. 15B: Colon length. FIG. 15C: Mortality. The data presented are the combined results of two experiments, with a total of 15 mice per group.*, significant effect over colitis-untreated mice (p<0.05).
To explore the inhibitory activity of 6C6, the ability of mAb treatment to ameliorate DSS induced acute colitis was examined Specifically, 2% DSS was provided to the highly susceptible mouse strain C57BL/6 for five days. 6C6 treatment was given daily by intraperitoneal injections of 1.5 or 5 […], starting at the day of induction. Mice exposed to 2% DSS developed symptoms of acute colitis, with diarrhea, rectal bleeding and severe weight loss.

MMP9 = MMP9 (Homo sapiens, UniProt P14780); assay: cleavage of mAb by MMP-9 on overnight incubation; settings: overnight incubations with 30 μM MMP9
Chain of MMP9 (P14780 94-707): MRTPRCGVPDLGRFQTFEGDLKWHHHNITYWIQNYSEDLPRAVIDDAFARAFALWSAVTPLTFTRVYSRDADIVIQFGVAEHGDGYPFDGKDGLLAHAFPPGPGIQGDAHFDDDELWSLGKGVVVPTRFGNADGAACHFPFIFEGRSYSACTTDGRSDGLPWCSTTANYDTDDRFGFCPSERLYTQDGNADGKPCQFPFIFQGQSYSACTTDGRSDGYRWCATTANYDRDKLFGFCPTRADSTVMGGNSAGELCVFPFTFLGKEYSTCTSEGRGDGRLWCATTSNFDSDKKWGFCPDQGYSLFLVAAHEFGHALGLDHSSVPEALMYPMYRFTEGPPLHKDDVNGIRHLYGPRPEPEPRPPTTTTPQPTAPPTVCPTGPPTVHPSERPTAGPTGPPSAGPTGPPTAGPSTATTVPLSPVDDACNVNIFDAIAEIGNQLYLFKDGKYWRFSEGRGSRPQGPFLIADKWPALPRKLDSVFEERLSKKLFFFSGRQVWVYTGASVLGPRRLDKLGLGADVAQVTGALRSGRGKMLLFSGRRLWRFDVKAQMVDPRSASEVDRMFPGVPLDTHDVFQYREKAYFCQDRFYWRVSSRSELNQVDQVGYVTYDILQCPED

Chain of TACE (P78536 215-824, species assumed): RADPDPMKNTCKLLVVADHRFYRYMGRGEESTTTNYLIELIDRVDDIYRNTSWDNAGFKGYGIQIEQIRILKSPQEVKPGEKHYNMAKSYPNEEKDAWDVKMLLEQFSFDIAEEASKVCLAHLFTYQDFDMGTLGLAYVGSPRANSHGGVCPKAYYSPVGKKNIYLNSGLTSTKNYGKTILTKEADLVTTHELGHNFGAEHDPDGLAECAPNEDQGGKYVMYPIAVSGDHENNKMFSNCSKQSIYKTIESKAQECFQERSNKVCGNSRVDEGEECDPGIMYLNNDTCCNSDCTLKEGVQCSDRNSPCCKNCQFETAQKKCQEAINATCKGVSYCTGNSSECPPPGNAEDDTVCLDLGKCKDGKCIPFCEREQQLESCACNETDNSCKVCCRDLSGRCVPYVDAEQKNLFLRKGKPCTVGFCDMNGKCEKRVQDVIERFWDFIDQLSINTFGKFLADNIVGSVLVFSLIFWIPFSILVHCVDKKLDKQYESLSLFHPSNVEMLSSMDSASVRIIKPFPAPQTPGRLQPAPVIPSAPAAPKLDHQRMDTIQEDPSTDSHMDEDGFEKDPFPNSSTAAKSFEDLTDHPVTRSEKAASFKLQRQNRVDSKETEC

| Molecule | binding to TACE (TACE) | binding to Pro-MMP-2 [1] | binding to Pro-MMP-2 (Pro-MMP-2) | reduction in colon length (DSS-induced colitis; 1.5 mg/kg mouse daily i.p.) | reduction in colon length (DSS-induced colitis; 5 mg/kg mouse daily i.p.) | disease activity index (DAI) (DSS-induced colitis; 2% DSS 5 days, daily i.p. mAb from day 0, versus untreated control) | mortality rate (DSS-induced colitis; 11 days after induction, 6C6 treated mice) | cleavage of mAb by MMP-9 (MMP9) |
| --- | --- | --- | --- | --- | --- | --- | --- | --- |
| B1 | no binding was detected | but not Pro-MMP-2 |  |  |  |  |  |  |
| B2 |  |  | did not bind | 22% | 16% | decreased disease activity | 33% | not cleaved |
